Starred links: 1 amine or outer side, 2 acyl side, 3 side chain; linkers in the order of their positions; H or OH if unused. Positions of bridges follow the written chain, without caps; N, C: chain ends. Non-standard residues stand in square brackets, D forms with d. Primed or numbered codes have the meaning given here. *: point of attachment. PyrS2″ = (S)-3-amino-1-((pent-4-en-1-yloxy)carbonyl)pyrrolidine-3-carboxylic acid (stapling residue), C=CCCCOC(=O)N1CC[C@@](N[*:1])(C(=O)[*:2])C1; B5(4) = 2,2-bis(4-pentenyl)glycine = 2-amino-2-(pent-4-en-1-yl)hept-6-enoic acid (stitching residue), C=CCCCC(CCCC=C)(N[*:1])C(=O)[*:2]; TfeGA = (S)-2-amino-3-((carboxymethyl)(2,2,2-trifluoroethyl)amino)propanoic acid, O=C([C@H](CN(CC(=O)[*:3])CC(F)(F)F)N[*:1])[*:2]; PyrS2 = (S)-3-amino-1-((pent-4-en-1-yloxy)carbonyl)pyrrolidine-3-carboxylic acid, C=CCCCOC(=O)N1CC[C@@](N[*:1])(C(=O)[*:2])C1; TriAzDap = Dap whose side chain is a 1H-1,2,3-triazol-1-yl bearing the bracketed 4-substituent; B5(3) = 2,2-bis(4-pentenyl)glycine (stitching residue), C=CCCCC(CCCC=C)(N[*:1])C(=O)[*:2]; Phe(3-COOH) = N[C@@H](Cc1cccc(C(=O)O)c1)C(=O)O; Phe(2-CF3) = N[C@@H](Cc1ccccc1C(F)(F)F)C(=O)O; Phe(2-Cl) = N[C@@H](Cc1ccccc1Cl)C(=O)O; Bta = N[C@@H](Cc1csc2ccccc12)C(=O)O; αAllylPro = C=CC[C@@]1(C(=O)O)CCCN1; tBuAla = CC(C)(C)C[C@H](N)C(=O)O; 3Thi = N[C@@H](Cc1ccsc1)C(=O)O; S8 = C=CCCCCCC[C@](C)(N)C(=O)O; CMe2CO2H = CC(C)(C(=O)O)*; TfeGA″ = not defined here; hSer = N[C@@H](CCO)C(=O)O; Abu = CC[C@H](N)C(=O)O; Alaol = C[C@@H](CO)N*; Aib = CC(C)(N)C(=O)O
How the values were obtained:
Assay in all cases: cell-based or functional assay
[1] = biological target: T1, beta-catenin in DLD1 TCF/LEF luciferase reporter cells (UniProt P35222 2-781)
T1 sequence (looked up): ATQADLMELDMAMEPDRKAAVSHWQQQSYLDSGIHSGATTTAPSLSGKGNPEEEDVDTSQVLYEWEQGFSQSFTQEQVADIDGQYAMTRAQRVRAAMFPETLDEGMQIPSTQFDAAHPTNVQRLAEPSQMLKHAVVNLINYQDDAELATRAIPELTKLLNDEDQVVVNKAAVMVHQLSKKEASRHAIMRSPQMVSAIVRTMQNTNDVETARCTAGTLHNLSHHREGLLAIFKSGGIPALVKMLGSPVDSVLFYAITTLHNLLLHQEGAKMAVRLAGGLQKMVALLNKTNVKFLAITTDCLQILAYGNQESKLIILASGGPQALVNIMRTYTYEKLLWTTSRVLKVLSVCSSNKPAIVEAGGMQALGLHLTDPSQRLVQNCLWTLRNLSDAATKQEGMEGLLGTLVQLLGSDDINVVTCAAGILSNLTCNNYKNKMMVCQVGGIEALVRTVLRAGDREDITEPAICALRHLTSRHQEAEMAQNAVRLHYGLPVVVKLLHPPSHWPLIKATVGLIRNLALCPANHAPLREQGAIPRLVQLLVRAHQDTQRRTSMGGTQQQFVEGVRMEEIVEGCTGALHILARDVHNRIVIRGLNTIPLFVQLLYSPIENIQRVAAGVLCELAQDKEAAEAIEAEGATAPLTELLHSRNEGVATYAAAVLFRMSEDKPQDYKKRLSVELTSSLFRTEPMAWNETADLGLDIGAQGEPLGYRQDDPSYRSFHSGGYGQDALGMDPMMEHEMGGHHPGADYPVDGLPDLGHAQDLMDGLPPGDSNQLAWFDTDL

[2] = biological target: T2, B-cat-Halo (UniProt P35222 1-781)
T2 sequence (looked up): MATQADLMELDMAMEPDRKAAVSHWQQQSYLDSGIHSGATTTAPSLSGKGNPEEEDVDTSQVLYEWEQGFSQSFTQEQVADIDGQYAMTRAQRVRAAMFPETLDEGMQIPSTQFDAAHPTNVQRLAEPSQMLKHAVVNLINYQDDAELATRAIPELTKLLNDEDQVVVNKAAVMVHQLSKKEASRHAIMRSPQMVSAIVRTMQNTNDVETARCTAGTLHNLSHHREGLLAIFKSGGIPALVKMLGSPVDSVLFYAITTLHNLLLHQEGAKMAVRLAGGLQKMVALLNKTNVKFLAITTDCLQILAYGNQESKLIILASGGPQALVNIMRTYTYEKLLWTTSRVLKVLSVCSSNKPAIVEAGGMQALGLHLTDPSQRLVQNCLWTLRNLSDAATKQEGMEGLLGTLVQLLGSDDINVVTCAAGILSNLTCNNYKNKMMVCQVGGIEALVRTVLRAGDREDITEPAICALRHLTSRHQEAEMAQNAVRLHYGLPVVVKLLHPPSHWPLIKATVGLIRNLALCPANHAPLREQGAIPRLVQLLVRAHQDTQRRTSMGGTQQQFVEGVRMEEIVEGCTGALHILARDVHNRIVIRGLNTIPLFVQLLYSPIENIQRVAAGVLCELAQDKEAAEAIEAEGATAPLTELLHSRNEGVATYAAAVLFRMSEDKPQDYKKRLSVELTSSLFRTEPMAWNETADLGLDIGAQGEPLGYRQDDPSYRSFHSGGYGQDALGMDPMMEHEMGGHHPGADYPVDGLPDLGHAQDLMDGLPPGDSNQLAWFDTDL

[3] = biological target: T3, beta-catenin in DLD1 TCF/LEF luciferase reporter cells (UniProt P35222 1-781)
T3 sequence (looked up): T2 sequence (looked up)

[4] = biological target: T4, B-cat-Halo (beta-catenin HaloTag NanoBRET construct expressed in HEK293 cells) (UniProt P35222 1-781)
T4 sequence (looked up): T2 sequence (looked up)

[5] = biological target: T5, beta-catenin in DLD1 TCF/LEF luciferase reporter cells (Homo sapiens (Human), UniProt P35222 1-781)
T5 sequence: T2 sequence (looked up)

[6] = biological target: T6, beta-catenin in DLD1 TCF/LEF luciferase reporter cells (UniProt P35222 1-781); remark: listed apart in the source
T6 sequence (looked up): T2 sequence (looked up)

[7] = biological target: T7, B-cat-Halo (UniProt P35222 1-781); remark: listed apart in the source
T7 sequence (looked up): T2 sequence (looked up)

[8] = biological target: T8, beta-catenin in DLD1 TCF/LEF luciferase reporter cells (UniProt P35222 1-781); remark: listed apart in the source
T8 sequence (looked up): T2 sequence (looked up)

[9] = biological target: T9, Bcat-Halo (beta-catenin HaloTag construct transfected into HEK293 cells) (UniProt P35222 1-781)
T9 sequence (looked up): T2 sequence (looked up)

[10] = biological target: T10, beta-catenin in DLD1 TCF/LEF luciferase reporter cells (Homo sapiens (Human), UniProt P35222 1-781); remark: listed apart in the source
T10 sequence: T2 sequence (looked up)

[11] = biological target: T11, beta-catenin in DLD1 TCF/LEF luciferase reporter cells (UniProt P35222 1-781); remark: listed apart in the source
T11 sequence (looked up): T2 sequence (looked up)

[12] = biological target: T12, beta-catenin in DLD1 TCF/LEF luciferase reporter cells (UniProt P35222 1-781); remark: listed apart in the source
T12 sequence (looked up): T2 sequence (looked up)

Ac-[αAllylPro]D[tBuAla][B5(3)]D[(Tfb)GA]AAFL[PyrS2″][3Thi][Bta]Q-NH2 (staple 1-4, 4-11) [I-1629]
DLD1 4% Abs IC50 [1]: 2.7 µM | NanoBRET Abs IC50 [2]: 4.3 µM

Ac-[αAllylPro]D[tBuAla][B5(3)]D[Phe(3-COOH)][Aib]AF[Abu][PyrS2″][Phe(2-CF3)][Bta][Me2Gln]A-NH2 (staple 1-4, 4-11) [Ac-PL3-Asp-Npg-B5-Asp-3COOHF-Aib-Ala-Phe-Abu-PyrS2-2F3MeF-BztA-Me2Gln-Ala-NH2]
DLD1 4% Abs IC50 [3]: 6.4 µM | NanoBRET Abs IC50 [4]: 6.2 µM

Ac-[αAllylPro]D[tBuAla][B5(3)]D[Phe(3-COOH)]AAFL[PyrS2″][Phe(2-Cl)][Bta]NAA[dA]-NH2 (staple 1-4, 4-11) [I-2041]
DLD1 4% Abs IC50 [5]: 1.9 µM

Ac-[αAllylPro]D[tBuAla][B5(4)]D[TfeGA]AAFL[PyrS2″][3Thi][Bta]A-NH2 (staple 1-4, 4-11) [I-1710]
DLD1 4% Abs IC50 [6]: 1.9 µM | NanoBRET Abs IC50 [7]: 3.9 µM

Ac-[αAllylPro]D[tBuAla][B5(3)]D[(Pfbn)GA]AAFL[PyrS2″][3Thi][Bta]Q-NH2 (staple 1-4, 4-11) [I-1632]
DLD1 4% Abs IC50 [1]: 2.6 µM | NanoBRET Abs IC50 [2]: 6.5 µM

Ac-[αAllylPro]D[tBuAla][B5(4)]D[TfeGA]AAFL[PyrS2][3Thi][Bta]Q-NH2 (staple 1-4, 4-11) [I-1461]
DLD1 4% Abs IC50 [8]: 1.7 µM | NanoBRET Abs IC50 [9]: 3.7 µM

Ac-[αAllylPro]D[tBuAla][B5(4)]D[TfeGA″]AAFL[PyrS2″][3Thi][Bta]T-NH2 (staple 1-4, 4-11; reading uncertain) [I-1706]
DLD1 4% Abs IC50 [6]: 2.7 µM | NanoBRET Abs IC50 [7]: 4.8 µM

Ac-[αAllylPro]D[tBuAla][B5(3)]D[TfeGA]AAFL[PyrS2″][3Thi][Bta][Me2Gln]A-NH2 (staple 1-4, 4-11) [Ac-PL3-Asp-Npg-B5-Asp-TfeGA-Ala-Ala-Phe-Leu-PyrS2-3Thi-BztA-Me2Gln-Ala-NH2]
DLD1 4% Abs IC50 [3]: 1.4 µM | NanoBRET Abs IC50 [4]: 2.5 µM

Ac-[αAllylPro]D[tBuAla][B5(4)]DDAAFT[PyrS2″][Phe(2-Cl)][Bta]S-NHEt (staple 1-4, 4-11) [I-1244]
DLD1 4% Abs IC50 [10]: 15.9 µM

Ac-[αAllylPro]D[tBuAla][B5(4)]D[TfeGA]AAFT[PyrS2″][Phe(2-Cl)][Bta]-Alaol (staple 1-4, 4-11) [I-1242]
DLD1 4% Abs IC50 [10]: 3.8 µM

Ac-[αAllylPro]D[tBuAla][B5(3)]D[TriAzDap](CMe2CO2H)AAFL[PyrS2″][Phe(2-CF3)][Bta]S-NH2 (staple 1-4, 4-11) [I-2374]
DLD1 4% Abs IC50 [11]: 2.6 µM

Ac-[αAllylPro]D[tBuAla][B5(3)]D[TfeGA]AAF[hSer][S8][Phe(2-Cl)][Bta]Q-NH2 (staple 1-4, 4-11) [I-996]
DLD1 reporter assay Abs IC50 [12]: 10.8 µM

— patent publication US20240116985A1 (published 2024)
